Assays:
[1] = tested on: HeLa Kyoto; assay: thermal stability score vs G1/S (z-score of summed log2 fold changes over temperatures); higher = more thermally stable than in G1/S
[2] = tested on: HeLa Kyoto; assay: melting temperature (median over replicates), in situ; higher = more thermally stable
[3] = tested on: HeLa Kyoto; assay: solubility in G1/S (NP-40 vs SDS abundance) (log2 ratio); higher = more soluble; conditions: cell cycle stage: G1/S
[4] = tested on: HeLa Kyoto; assay: solubility change mitosis vs G1/S (difference of NP-40 vs SDS log2 ratios) (log2 ratio difference); higher = more soluble in mitosis
[5] = cell cycle stage: early G1 (4.5 h after nocodazole release)
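Throughout, for melting temperature (median over replicates), in situ: HeLa Kyoto cells synchronized by double thymidine or nocodazole block, proteins quantified by TMT10plex mass spectrometry, three independent biological replicates.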
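Throughout, for solubility change mitosis vs G1/S (difference of NP-40 vs SDS log2 ratios): synchronized HeLa Kyoto cells (double thymidine block for G1/S, nocodazole release for mitosis), protein amounts in NP-40 versus SDS lysates quantified by mass spectrometry, three biological replicates.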
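Throughout, for solubility in G1/S (NP-40 vs SDS abundance): HeLa Kyoto cells arrested at G1/S by double thymidine block, proteins quantified by TMT10plex mass spectrometry in mild NP-40 versus SDS extracts, three biological replicates.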
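Throughout, for thermal stability score vs G1/S (z-score of summed log2 fold changes over temperatures): synchronized HeLa Kyoto cells, proteins quantified by TMT10plex mass spectrometry, three biological replicates, mitosis taken 0.5 h after nocodazole release, G1/S directly after double thymidine block.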

With “MAQPGPASQPDVSLQQRVAELEKINAEFLRAQQQLEQEFNQKRAKFKELYLAKEEDLKRQNAVLQAAQDDLGHLRTQLWEAQAEMENIKAIATVSENTKQEAIDEVKRQWREEVASLQAVMKETVRDYEHQFHLRLEQERTQWAQYRESAEREIADLRRRLSEGQEEENLENEMKKAQEDAEKLRSVVMPMEKEIAALKDKLTEAEDKIKELEASKVKELNHYLEAEKSCRTDLEMYVAVLNTQKSVLQEDAEKLRKELHEVCHLLEQERQQHNQLKHTWQKANDQFLESQRLLMRDMQRMEIVLTSEQLRQVEELKKKDQEDDEQQRLNKRKDHKKADVEEEIKIPVVCALTQEESSAQLSNEEEHLDSTRGSVHSLDAGLLLPSGDPFSKSDNDMFKDGLRRAQSTDSLGTSGSLQSKALGYNYKAKSAGNLDESDFGPLVGADSVSENFDTASLGSLQMPSGFMLTKDQERAIKAMTPEQEETASLLSSVTQGMESAYVSPSGYRLVSETEWNLLQKEVHNAGNKLGRRCDMCSNYEKQLQGIQIQEAETRDQVKKLQLMLRQANDQLEKTMKDKQELEDFIKQSSEDSSHQISALVLRAQASEILLEELQQGLSQAKRDVQEQMAVLMQSREQVSEELVRLQKDNDSLQGKHSLHVSLQQAEDFILPDTTEALRELVLKYREDIINVRTAADHVEEKLKAEILFLKEQIQAEQCLKENLEETLQLEIENCKEEIASISSLKAELERIKVEKGQLESTLREKSQQLESLQEIKISLEEQLKKETAAKATVEQLMFEEKNKAQRLQTELDVSEQVQRDFVKLSQTLQVQLERIRQADSLERIRAILNDTKLTDINQLPET [RABEP1]” the thermal stability score [1, 5] was -1, the thermal stability score ([1]; cell cycle stage: mitosis) was -0.882 and the melting temperature ([2]; cell cycle stage: G1/S) was 51 °C. For the same sequence, the melting temperature ([2]; cell cycle stage: mitosis) was 50.4 °C, the “solubility in G1/S (log2)” value [3] was 0.412 and the “solubility change mitosis (log2)” value [4] was -0.0841.

Work on “MAQPPPDVEGDDCLPAYRHLFCPDLLRDKVAFITGGGSGIGFRIAEIFMRHGCHTVIASRSLPRVLTAARKLAGATGRRCLPLSMDVRAPPAVMAAVDQALKEFGRIDILINCAAGNFLCPAGALSFNAFKTVMDIDTSGTFNVSRVLYEKFFRDHGGVIVNITATLGNRGQALQVHAGSAKAAVDAMTRHLAVEWGPQNIRVNSLAPGPISGTEGLRRLGGPQASLSTKVTASPLQRLGNKTEIAHSVLYLASPLASYVTGAVLVADGGAWLTFPNGVKGLPDFASFSAKL [DECR2]” yielded a thermal stability score [1, 5] of 1.32, a thermal stability score ([1]; cell cycle stage: mitosis) of 0.657 and a melting temperature ([2]; cell cycle stage: G1/S) of 51.9 °C. The melting temperature ([2]; cell cycle stage: mitosis) was 52.1 °C, the “solubility in G1/S (log2)” value [3] was 0.0495 and the “solubility change mitosis (log2)” value [4] was -0.232.

In the case of “MAQRKNAKSSGNSSSSGSGSGSTSAGSSSPGARRETKHGGHKNGRKGGLSGTSFFTWFMVIALLGVWTSVAVVWFDLVDYEEVLGKLGIYDADGDGDFDVDDAKVLLGLKERSTSEPAVPPEEAEPHTEPEEQVPVEAEPQNIEDEAKEQIQSLLHEMVHAEHVEGEDLQQEDGPTGEPQQEDDEFLMATDVDDRFETLEPEVSHEETEHSYHVEETVSQDCNQDMEEMMSEQENPDSSEPVVEDERLHHDTDDVTYQVYEEQAVYEPLENEGIEITEVTAPPEDNPVEDSQVIVEEVSIFPVEEQQEVPPETNRKTDDPEQKAKVKKKKPKLLNKFDKTIKAELDAAEKLRKRGKIEEAVNAFKELVRKYPQSPRARYGKAQCEDDLAEKRRSNEVLRGAIETYQEVASLPDVPADLLKLSLKRRSDRQQFLGHMRGSLLTLQRLVQLFPNDTSLKNDLGVGYLLIGDNDNAKKVYEEVLSVTPNDGFAKVHYGFILKAQNKIAESIPYLKEGIESGDPGTDDGRFYFHLGDAMQRVGNKEAYKWYELGHKRGHFASVWQRSLYNVNGLKAQPWWTPKETGYTELVKSLERNWKLIRDEGLAVMDKAKGLFLPEDENLREKGDWSQFTLWQQGRRNENACKGAPKTCTLLEKFPETTGCRRGQIKYSIMHPGTHVWPHTGPTNCRLRMHLGLVIPKEGCKIRCANETKTWEEGKVLIFDDSFEHEVWQDASSFRLIFIVDVWHPELTPQQRRSLPAI [ASPH]”, the thermal stability score [1, 5] is reported as 1.63, the thermal stability score ([1]; cell cycle stage: mitosis) is reported as 2.03 and the melting temperature ([2]; cell cycle stage: G1/S) is reported as 54.2 °C. For the same sequence, the melting temperature ([2]; cell cycle stage: mitosis) was 53.5 °C, the “solubility in G1/S (log2)” value [3] was -0.00862 and the “solubility change mitosis (log2)” value [4] was 0.0282.

Work on “MAQSRDGGNPFAEPSELDNPFQDPAVIQHRPSRQYATLDVYNPFETREPPPAYEPPAPAPLPPPSAPSLQPSRKLSPTEPKNYGSYSTQASAAAATAELLKKQEELNRKAEELDRRERELQHAALGGTATRQNNWPPLPSFCPVQPCFFQDISMEIPQEFQKTVSTMYYLWMCSTLALLLNFLACLASFCVETNNGAGFGLSILWVLLFTPCSFVCWYRPMYKAFRSDSSFNFFVFFFIFFVQDVLFVLQAIGIPGWGFSGWISALVVPKGNTAVSVLMLLVALLFTGIAVLGIVMLKRIHSLYRRTGASFQKAQQEFAAGVFSNPAVRTAAANAAAGAAENAFRAP [SCAMP3]” yielded a thermal stability score [1, 5] of -1.12, a thermal stability score ([1]; cell cycle stage: mitosis) of 0.091 and a melting temperature ([2]; cell cycle stage: G1/S) of 58.2 °C. For the same sequence, the melting temperature ([2]; cell cycle stage: mitosis) was 57.8 °C, the “solubility in G1/S (log2)” value [3] was 0.19 and the “solubility change mitosis (log2)” value [4] was -0.173.

For “MAQTPAFDKPKVELHVHLDGSIKPETILYYGRRRGIALPANTAEGLLNVIGMDKPLTLPDFLAKFDYYMPAIAGCREAIKRIAYEFVEMKAKEGVVYVEVRYSPHLLANSKVEPIPWNQAEGDLTPDEVVALVGQGLQEGERDFGVKARSILCCMRHQPNWSPKVVELCKKYQQQTVVAIDLAGDETIPGSSLLPGHVQAYQEAVKSGIHRTVHAGEVGSAEVVKEAVDILKTERLGHGYHTLEDQALYNRLRQENMHFEICPWSSYLTGAWKPDTEHAVIRLKNDQANYSLNTDDPLIFKSTLDTDYQMTKRDMGFTEEEFKRLNINAAKSSFLPEDEKRELLDLLYKAYGMPPSASAGQNL [ADA]”, the thermal stability score [1, 5] was -1.89, the thermal stability score ([1]; cell cycle stage: mitosis) was -1.32 and the melting temperature ([2]; cell cycle stage: G1/S) was 57.9 °C. For the same sequence, the melting temperature ([2]; cell cycle stage: mitosis) was 59.2 °C, the “solubility in G1/S (log2)” value [3] was 0.319 and the “solubility change mitosis (log2)” value [4] was -0.0197.
